What was measured:
PcrA helicase = target: T1, PcrA helicase (UniProt P56255 1-724); assay: not stated in material
T1 sequence: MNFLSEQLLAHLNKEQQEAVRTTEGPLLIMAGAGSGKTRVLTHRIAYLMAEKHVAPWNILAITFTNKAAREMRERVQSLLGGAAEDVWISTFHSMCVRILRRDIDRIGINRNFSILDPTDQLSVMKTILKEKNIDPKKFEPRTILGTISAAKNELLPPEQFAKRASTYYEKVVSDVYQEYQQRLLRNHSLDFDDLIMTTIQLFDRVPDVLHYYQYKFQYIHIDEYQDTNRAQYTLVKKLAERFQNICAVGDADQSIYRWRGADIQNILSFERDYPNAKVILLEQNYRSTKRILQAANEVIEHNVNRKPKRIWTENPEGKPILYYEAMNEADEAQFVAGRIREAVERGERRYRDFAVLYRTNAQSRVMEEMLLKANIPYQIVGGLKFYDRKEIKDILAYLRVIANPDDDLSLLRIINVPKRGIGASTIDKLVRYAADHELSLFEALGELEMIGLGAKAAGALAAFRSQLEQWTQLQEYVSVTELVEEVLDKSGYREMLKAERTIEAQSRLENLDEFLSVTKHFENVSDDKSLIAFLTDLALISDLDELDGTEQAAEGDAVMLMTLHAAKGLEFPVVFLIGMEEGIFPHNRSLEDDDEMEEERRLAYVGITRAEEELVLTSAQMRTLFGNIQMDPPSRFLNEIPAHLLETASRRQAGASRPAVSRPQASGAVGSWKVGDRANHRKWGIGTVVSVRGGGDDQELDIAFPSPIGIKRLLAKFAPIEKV

RepD = target: T2, RepD (Staphylococcus aureus, UniProt P03065); assay: fluorescence anisotropy
T2 chain: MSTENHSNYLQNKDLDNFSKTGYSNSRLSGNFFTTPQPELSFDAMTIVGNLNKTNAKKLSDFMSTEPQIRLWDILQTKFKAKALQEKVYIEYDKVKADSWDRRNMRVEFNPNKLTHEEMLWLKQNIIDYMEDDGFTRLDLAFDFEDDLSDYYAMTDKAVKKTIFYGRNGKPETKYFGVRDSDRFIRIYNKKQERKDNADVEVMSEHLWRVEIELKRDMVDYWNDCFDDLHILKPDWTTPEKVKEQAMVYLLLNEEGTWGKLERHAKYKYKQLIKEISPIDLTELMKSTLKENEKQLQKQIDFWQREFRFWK

TTTTTTTTTT (ssDNA) [dT10]
Kd (PcrA helicase): 240 nM

B1: PcrA (protein)
chain: MNFLSEQLLAHLNKEQQEAVRTTEGPLLIMAGAGSGKTRVLTHRIAYLMAEKHVAPWNILAITFTNKAAREMRERVQSLLGGAAEDVWISTFHSMCVRILRRDIDRIGINRNFSILDPTDQLSVMKTILKEKNIDPKKFEPRTILGTISAAKNELLPPEQFAKRASTYYEKVVSDVYQEYQQRLLRNHSLDFDDLIMTTIQLFDRVPDVLHYYQYKFQYIHIDEYQDTNRAQYTLVKKLAERFQNICAVGDADQSIYRWRGADIQNILSFERDYPNAKVILLEQNYRSTKRILQAANEVIEHNVNRKPKRIWTENPEGKPILYYEAMNEADEAQFVAGRIREAVERGERRYRDFAVLYRTNAQSRVMEEMLLKANIPYQIVGGLKFYDRKEIKDILAYLRVIANPDDDLSLLRIINVPKRGIGASTIDKLVRYAADHELSLFEALGELEMIGLGAKAAGALAAFRSQLEQWTQLQEYVSVTELVEEVLDKSGYREMLKAERTIEAQSRLENLDEFLSVTKHFENVSDDKSLIAFLTDLALISDLDELDGTEQAAEGDAVMLMTLHAAKGLEFPVVFLIGMEEGIFPHNRSLEDDDEMEEERRLAYVGITRAEEELVLTSAQMRTLFGNIQMDPPSRFLNEIPAHLLETASRRQAGASRPAVSRPQASGAVGSWKVGDRANHRKWGIGTVVSVRGGGDDQELDIAFPSPIGIKRLLAKFAPIEKV
modifications: DNA junction
Kd (RepD): 22 nM
